target: FGFR3 (UniProt P22607); test: phosphorylation enrichment, bacterial display (enrichment ratio); higher = better substrate or ligand; peptides without Tyr show the background
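Note: 11-residue human phosphosite peptides and single-mutation variants displayed on the E. coli surface, counted by deep sequencing, each peptide's frequency after selection divided by its frequency in the unselected input library; frequency after pTyr selection over input frequency; kinase dosed for 20-30% of maximal phosphorylation in three min.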

FGFR3, sequence (P22607 whole entry, looked up): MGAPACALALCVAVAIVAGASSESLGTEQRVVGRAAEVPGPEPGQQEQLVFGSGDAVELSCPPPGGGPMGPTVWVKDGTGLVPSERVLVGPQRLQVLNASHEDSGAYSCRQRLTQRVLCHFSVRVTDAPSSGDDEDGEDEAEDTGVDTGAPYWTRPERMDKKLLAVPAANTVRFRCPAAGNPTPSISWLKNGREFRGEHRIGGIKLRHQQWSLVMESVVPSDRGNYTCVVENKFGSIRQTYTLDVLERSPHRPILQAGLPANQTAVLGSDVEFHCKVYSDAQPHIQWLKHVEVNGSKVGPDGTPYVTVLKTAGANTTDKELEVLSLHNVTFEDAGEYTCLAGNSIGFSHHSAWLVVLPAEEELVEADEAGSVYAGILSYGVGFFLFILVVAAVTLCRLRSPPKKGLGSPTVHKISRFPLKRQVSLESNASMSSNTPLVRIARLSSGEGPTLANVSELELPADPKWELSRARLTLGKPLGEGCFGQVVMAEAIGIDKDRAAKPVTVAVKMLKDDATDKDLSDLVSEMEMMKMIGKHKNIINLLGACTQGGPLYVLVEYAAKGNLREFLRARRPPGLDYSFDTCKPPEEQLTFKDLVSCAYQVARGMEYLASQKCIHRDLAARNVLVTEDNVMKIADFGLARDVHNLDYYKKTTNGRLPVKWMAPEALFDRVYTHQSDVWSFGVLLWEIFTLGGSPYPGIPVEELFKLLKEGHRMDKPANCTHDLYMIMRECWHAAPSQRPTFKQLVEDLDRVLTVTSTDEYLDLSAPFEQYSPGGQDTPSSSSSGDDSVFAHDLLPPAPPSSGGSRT

| Sequence | phosphorylation enrichment |
| --- | --- |
| KVMANYVFKAG [MAML2_Y513_M514V_YF] | 0.486 |
| WGLCSYYETSK [MAGED2_Y448_R446C] | 1.02 |
| KDIENHIQDGK [RAD50_Y964_Y964H] | 0.445 |
| FHKALYTVRTY [PDE6C_Y266_S270T] | 0.774 |
| RHRSGYVLIAM [EFR3A_Y73] | 0.773 |
| AVNDFYAAKKT [CCDC178_Y422] | 0.551 |
| HSFQCYGQNEA [ENTPD3_Y262_R264Q] | 0.71 |
| HSVVQYVGGVM [FGGY_Y136_L134V] | 0.629 |
| KQINDYVEKGT [SERPINA1_Y184] | 0.58 |
| HNLPIYEGFAL [ACTA1_Y168_V165L_YF] | 1.13 |
| KEDSAYGSQSV [NFKB2_Y868] | 0.584 |
| YSNVLYRPRGA [TMIGD2_Y197] | 0.614 |
| RELGEYALAEY [ALDH1A3_Y492] | 0.714 |
| YTGSTYRVGDT [FN1_Y106_N104S] | 0.58 |
| GHLYAYNWISI [BEST1_Y227_D228N] | 2.83 |
| DYYDLYGGEKK [PTPN11_Y66_F71K] | 14.1 |
| PPSGEYFGQCG [TRIP6_Y275] | 1.06 |

| Sequence | phosphorylation enrichment |
| --- | --- |
| LFLACYFIGGG [UBD_Y161_C162F] | 1.05 |
| IENKLYGTSDP [RET_Y1062_M1064T] | 0.559 |
| REEKNYKLKET [BCLAF1_Y459] | 0.714 |
| LYDPDFMKVIL [CYP4A22_Y104_Y104F] | 0.688 |
| FGLDRYQCDCT [PTGS1_Y54] | 0.861 |
| QMVDMYASSYM [AVPR2_Y124_G122D] | 0.815 |
| EKIANYKEGTY [CLRN1_Y171] | 0.449 |
| HSLHDYKEALM [ADA2_Y337] | 0.567 |
| TQPSPYAVYLF [RPGRIP1_Y823_R827L] | 1.1 |
| FADIAYNYRHA [PAH_Y166_G171A] | 0.542 |
| LREIRYQGGNR [VWF_Y1570_V1565L] | 0.551 |
| VGIMLYGVDSR [PKD1_Y3143] | 0.792 |
| THPFLYLSLEI [MLH1_Y293] | 0.827 |
| RELGEYGLQAY [ALDH2_Y497] | 0.977 |
| VPEANYTSDEE [STK33_Y439_D436E] | 0.947 |
| TKLKDYFIFNK [CCDC42_Y149_A144T_YF] | 0.871 |

test system: Fer (mouse); test: as above

| Sequence | phosphorylation enrichment |
| --- | --- |
| KVMANYVFKAG [MAML2_Y513_M514V_YF] | 0.355 |
| WGLCSYYETSK [MAGED2_Y448_R446C] | 0.572 |
| KDIENHIQDGK [RAD50_Y964_Y964H] | 0.414 |
| FHKALYTVRTY [PDE6C_Y266_S270T] | 0.542 |
| RHRSGYVLIAM [EFR3A_Y73] | 1.1 |
| AVNDFYAAKKT [CCDC178_Y422] | 0.381 |
| HSFQCYGQNEA [ENTPD3_Y262_R264Q] | 0.382 |
| HSVVQYVGGVM [FGGY_Y136_L134V] | 0.643 |
| KQINDYVEKGT [SERPINA1_Y184] | 0.536 |
| HNLPIYEGFAL [ACTA1_Y168_V165L_YF] | 21.9 |
| KEDSAYGSQSV [NFKB2_Y868] | 0.409 |
| YSNVLYRPRGA [TMIGD2_Y197] | 4.97 |
| RELGEYALAEY [ALDH1A3_Y492] | 0.74 |
| YTGSTYRVGDT [FN1_Y106_N104S] | 0.405 |
| GHLYAYNWISI [BEST1_Y227_D228N] | 12 |
| DYYDLYGGEKK [PTPN11_Y66_F71K] | 0.888 |
| PPSGEYFGQCG [TRIP6_Y275] | 0.824 |

| Sequence | phosphorylation enrichment |
| --- | --- |
| LFLACYFIGGG [UBD_Y161_C162F] | 0.533 |
| IENKLYGTSDP [RET_Y1062_M1064T] | 0.549 |
| REEKNYKLKET [BCLAF1_Y459] | 1.3 |
| LYDPDFMKVIL [CYP4A22_Y104_Y104F] | 1.09 |
| FGLDRYQCDCT [PTGS1_Y54] | 0.492 |
| QMVDMYASSYM [AVPR2_Y124_G122D] | 0.631 |
| EKIANYKEGTY [CLRN1_Y171] | 0.552 |
| HSLHDYKEALM [ADA2_Y337] | 0.44 |
| TQPSPYAVYLF [RPGRIP1_Y823_R827L] | 7.18 |
| FADIAYNYRHA [PAH_Y166_G171A] | 0.424 |
| LREIRYQGGNR [VWF_Y1570_V1565L] | 0.537 |
| VGIMLYGVDSR [PKD1_Y3143] | 0.634 |
| THPFLYLSLEI [MLH1_Y293] | 0.478 |
| RELGEYGLQAY [ALDH2_Y497] | 0.949 |
| VPEANYTSDEE [STK33_Y439_D436E] | 0.721 |
| TKLKDYFIFNK [CCDC42_Y149_A144T_YF] | 0.376 |

target: Fes (UniProt P07332); test: as above
Sequence (P07332 whole entry, looked up): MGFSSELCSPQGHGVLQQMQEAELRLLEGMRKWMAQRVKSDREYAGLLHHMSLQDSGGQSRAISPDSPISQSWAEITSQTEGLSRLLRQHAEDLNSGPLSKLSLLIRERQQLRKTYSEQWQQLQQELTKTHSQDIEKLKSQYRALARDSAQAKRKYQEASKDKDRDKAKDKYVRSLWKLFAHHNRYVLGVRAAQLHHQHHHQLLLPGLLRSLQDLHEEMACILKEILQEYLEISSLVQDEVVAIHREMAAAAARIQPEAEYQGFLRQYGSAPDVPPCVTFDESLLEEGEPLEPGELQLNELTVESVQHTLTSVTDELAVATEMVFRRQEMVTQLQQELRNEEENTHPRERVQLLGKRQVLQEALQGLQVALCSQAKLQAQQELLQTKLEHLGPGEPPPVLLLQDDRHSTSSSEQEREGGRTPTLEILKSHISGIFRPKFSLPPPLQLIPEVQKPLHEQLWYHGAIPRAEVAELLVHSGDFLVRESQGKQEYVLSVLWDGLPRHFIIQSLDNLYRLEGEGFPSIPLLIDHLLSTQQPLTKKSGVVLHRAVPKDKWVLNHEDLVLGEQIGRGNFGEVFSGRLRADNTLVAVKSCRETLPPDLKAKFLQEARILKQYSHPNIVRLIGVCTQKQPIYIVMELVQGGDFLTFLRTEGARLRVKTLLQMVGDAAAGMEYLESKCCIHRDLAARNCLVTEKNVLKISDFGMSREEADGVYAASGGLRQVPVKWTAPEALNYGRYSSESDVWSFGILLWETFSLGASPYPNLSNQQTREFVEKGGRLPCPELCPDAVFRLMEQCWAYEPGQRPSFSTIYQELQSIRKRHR

| Sequence | phosphorylation enrichment |
| --- | --- |
| KVMANYVFKAG [MAML2_Y513_M514V_YF] | 0.656 |
| WGLCSYYETSK [MAGED2_Y448_R446C] | 1.31 |
| KDIENHIQDGK [RAD50_Y964_Y964H] | 0.684 |
| FHKALYTVRTY [PDE6C_Y266_S270T] | 1.26 |
| RHRSGYVLIAM [EFR3A_Y73] | 1.37 |
| AVNDFYAAKKT [CCDC178_Y422] | 0.703 |
| HSFQCYGQNEA [ENTPD3_Y262_R264Q] | 1 |
| HSVVQYVGGVM [FGGY_Y136_L134V] | 0.911 |
| KQINDYVEKGT [SERPINA1_Y184] | 0.905 |
| HNLPIYEGFAL [ACTA1_Y168_V165L_YF] | 2.8 |
| KEDSAYGSQSV [NFKB2_Y868] | 1.07 |
| YSNVLYRPRGA [TMIGD2_Y197] | 0.753 |
| RELGEYALAEY [ALDH1A3_Y492] | 2.76 |
| YTGSTYRVGDT [FN1_Y106_N104S] | 0.748 |
| GHLYAYNWISI [BEST1_Y227_D228N] | 1.49 |
| DYYDLYGGEKK [PTPN11_Y66_F71K] | 1.17 |
| PPSGEYFGQCG [TRIP6_Y275] | 1.37 |

| Sequence | phosphorylation enrichment |
| --- | --- |
| LFLACYFIGGG [UBD_Y161_C162F] | 1.77 |
| IENKLYGTSDP [RET_Y1062_M1064T] | 0.869 |
| REEKNYKLKET [BCLAF1_Y459] | 1.21 |
| LYDPDFMKVIL [CYP4A22_Y104_Y104F] | 1.78 |
| FGLDRYQCDCT [PTGS1_Y54] | 1.23 |
| QMVDMYASSYM [AVPR2_Y124_G122D] | 1.43 |
| EKIANYKEGTY [CLRN1_Y171] | 0.704 |
| HSLHDYKEALM [ADA2_Y337] | 0.844 |
| TQPSPYAVYLF [RPGRIP1_Y823_R827L] | 1.68 |
| FADIAYNYRHA [PAH_Y166_G171A] | 0.779 |
| LREIRYQGGNR [VWF_Y1570_V1565L] | 0.636 |
| VGIMLYGVDSR [PKD1_Y3143] | 1.19 |
| THPFLYLSLEI [MLH1_Y293] | 1.52 |
| RELGEYGLQAY [ALDH2_Y497] | 1.61 |
| VPEANYTSDEE [STK33_Y439_D436E] | 1.52 |
| TKLKDYFIFNK [CCDC42_Y149_A144T_YF] | 0.766 |

target: Fyn (UniProt P06241); test: as above
Sequence (P06241 whole entry, looked up): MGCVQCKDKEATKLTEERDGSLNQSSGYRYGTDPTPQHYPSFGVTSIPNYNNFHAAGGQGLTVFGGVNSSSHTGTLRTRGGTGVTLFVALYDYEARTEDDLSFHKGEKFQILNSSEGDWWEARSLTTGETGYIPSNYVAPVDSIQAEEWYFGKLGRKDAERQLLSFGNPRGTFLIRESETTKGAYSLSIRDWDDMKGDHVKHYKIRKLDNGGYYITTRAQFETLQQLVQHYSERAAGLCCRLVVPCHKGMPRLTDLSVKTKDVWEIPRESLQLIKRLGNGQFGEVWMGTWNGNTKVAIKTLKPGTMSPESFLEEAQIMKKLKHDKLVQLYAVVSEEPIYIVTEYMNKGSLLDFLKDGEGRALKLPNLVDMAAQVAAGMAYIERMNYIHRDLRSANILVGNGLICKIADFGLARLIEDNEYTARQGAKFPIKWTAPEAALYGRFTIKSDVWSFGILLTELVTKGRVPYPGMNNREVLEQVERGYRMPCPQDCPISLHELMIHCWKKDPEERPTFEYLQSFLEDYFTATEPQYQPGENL

| Sequence | phosphorylation enrichment |
| --- | --- |
| KVMANYVFKAG [MAML2_Y513_M514V_YF] | 0.382 |
| WGLCSYYETSK [MAGED2_Y448_R446C] | 0.488 |
| KDIENHIQDGK [RAD50_Y964_Y964H] | 0.488 |
| FHKALYTVRTY [PDE6C_Y266_S270T] | 0.599 |
| RHRSGYVLIAM [EFR3A_Y73] | 0.605 |
| AVNDFYAAKKT [CCDC178_Y422] | 0.508 |
| HSFQCYGQNEA [ENTPD3_Y262_R264Q] | 0.535 |
| HSVVQYVGGVM [FGGY_Y136_L134V] | 0.465 |
| KQINDYVEKGT [SERPINA1_Y184] | 0.44 |
| HNLPIYEGFAL [ACTA1_Y168_V165L_YF] | 14.1 |
| KEDSAYGSQSV [NFKB2_Y868] | 0.535 |
| YSNVLYRPRGA [TMIGD2_Y197] | 0.615 |
| RELGEYALAEY [ALDH1A3_Y492] | 0.614 |
| YTGSTYRVGDT [FN1_Y106_N104S] | 0.464 |
| GHLYAYNWISI [BEST1_Y227_D228N] | 1.01 |
| DYYDLYGGEKK [PTPN11_Y66_F71K] | 4.04 |
| PPSGEYFGQCG [TRIP6_Y275] | 0.552 |

| Sequence | phosphorylation enrichment |
| --- | --- |
| LFLACYFIGGG [UBD_Y161_C162F] | 0.502 |
| IENKLYGTSDP [RET_Y1062_M1064T] | 0.59 |
| REEKNYKLKET [BCLAF1_Y459] | 0.843 |
| LYDPDFMKVIL [CYP4A22_Y104_Y104F] | 0.888 |
| FGLDRYQCDCT [PTGS1_Y54] | 0.524 |
| QMVDMYASSYM [AVPR2_Y124_G122D] | 0.876 |
| EKIANYKEGTY [CLRN1_Y171] | 0.546 |
| HSLHDYKEALM [ADA2_Y337] | 0.444 |
| TQPSPYAVYLF [RPGRIP1_Y823_R827L] | 7.04 |
| FADIAYNYRHA [PAH_Y166_G171A] | 0.425 |
| LREIRYQGGNR [VWF_Y1570_V1565L] | 0.756 |
| VGIMLYGVDSR [PKD1_Y3143] | 0.572 |
| THPFLYLSLEI [MLH1_Y293] | 0.383 |
| RELGEYGLQAY [ALDH2_Y497] | 0.822 |
| VPEANYTSDEE [STK33_Y439_D436E] | 0.665 |
| TKLKDYFIFNK [CCDC42_Y149_A144T_YF] | 0.419 |
